{"source": "paper PMC6843132", "about": "“The Plant NF-Y DNA Matrix In Vitro and In Vivo”", "key": {"[1]": {"target": "T1, AtNF-YA6;AtNF-YB2;AtNF-YC3 (Arabidopsis thaliana;Arabidopsis …, UniProt Q9LVJ7;Q9FGJ3;Q9ZVL3 170-237;24-116;55-148, ||)", "T1 sequence (Q9LVJ7 170-237, chain 1 of 3)": "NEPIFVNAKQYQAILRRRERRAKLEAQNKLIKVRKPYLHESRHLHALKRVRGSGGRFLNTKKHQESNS", "T1 sequence (Q9FGJ3 24-116, chain 2 of 3)": "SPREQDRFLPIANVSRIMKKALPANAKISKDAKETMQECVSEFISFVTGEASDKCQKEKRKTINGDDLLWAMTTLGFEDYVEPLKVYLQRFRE", "T1 sequence (Q9ZVL3 55-148, chain 3 of 3)": "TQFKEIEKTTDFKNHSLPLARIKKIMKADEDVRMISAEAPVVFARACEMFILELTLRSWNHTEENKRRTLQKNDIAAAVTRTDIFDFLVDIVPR", "assay": "EMSA; 12 mM Tris-HCl pH 8.0, 50 mM NaCl, 50 mM KCl, 5 mM MgCl2, 0.5 mM EDTA, 12% glycerol, 0.2 mg/mL BSA, 2.5 mM DTT, 100 ng poly(dA:dT), 20 nM Cy5 probe, 30 C 30 min; 6% PAGE in 0.25X TBE", "conditions": "protein: recombinant;recombinant;recombinant; tags: 6His;6His removed by thrombin;; copies: 1;1;1; label: Cy5 5'"}, "[2]": {"target": "AtNF-YA2;AtNF-YB2;AtNF-YC3 (Arabidopsis thaliana;Arabidopsis …, UniProt Q9M9X4;Q9FGJ3;Q9ZVL3 134-207;24-116;55-148, ||)", "sequence (Q9M9X4 134-207, chain 1 of 3)": "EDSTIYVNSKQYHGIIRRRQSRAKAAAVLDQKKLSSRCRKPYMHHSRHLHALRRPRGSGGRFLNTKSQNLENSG", "sequence (Q9FGJ3 24-116, chain 2 of 3)": "as the sequence (Q9FGJ3 24-116, chain 2 of 3) above", "sequence (Q9ZVL3 55-148, chain 3 of 3)": "as the sequence (Q9ZVL3 55-148, chain 3 of 3) above", "assay": "EMSA; efficiency similar to NF-YA6 trimer; 12 mM Tris-HCl pH 8.0, 50 mM NaCl, 50 mM KCl, 5 mM MgCl2, 0.5 mM EDTA, 12% glycerol, 0.2 mg/mL BSA, 2.5 mM DTT, 100 ng poly(dA:dT), 20 nM Cy5 probe, 30 C 30 min; 6% PAGE in 0.25X TBE", "conditions": "protein: recombinant;recombinant;recombinant; tags: 6His;6His removed by thrombin;; copies: 1;1;1; label: Cy5 5'"}, "[3]": {"target": "T1, AtNF-YA6;AtNF-YB2;AtNF-YC3", "assay": "competition EMSA; preferred over WT; 12 mM Tris-HCl pH 8.0, 50 mM NaCl, 50 mM KCl, 5 mM MgCl2, 0.5 mM EDTA, 12% glycerol, 0.2 mg/mL BSA, 2.5 mM DTT, 100 ng poly(dA:dT), 20 nM Cy5 probe, 30 C 30 min; 6% PAGE in 0.25X TBE", "conditions": "protein: recombinant;recombinant;recombinant; tags: 6His;6His removed by thrombin;; copies: 1;1;1"}, "[4]": {"target": "T1, AtNF-YA6;AtNF-YB2;AtNF-YC3", "assay": "competition EMSA; equal to WT; 12 mM Tris-HCl pH 8.0, 50 mM NaCl, 50 mM KCl, 5 mM MgCl2, 0.5 mM EDTA, 12% glycerol, 0.2 mg/mL BSA, 2.5 mM DTT, 100 ng poly(dA:dT), 20 nM Cy5 probe, 30 C 30 min; 6% PAGE in 0.25X TBE", "conditions": "protein: recombinant;recombinant;recombinant; tags: 6His;6His removed by thrombin;; copies: 1;1;1"}, "[5]": {"target": "T1, AtNF-YA6;AtNF-YB2;AtNF-YC3", "assay": "competition EMSA; similar rates, WT A least preferred; 12 mM Tris-HCl pH 8.0, 50 mM NaCl, 50 mM KCl, 5 mM MgCl2, 0.5 mM EDTA, 12% glycerol, 0.2 mg/mL BSA, 2.5 mM DTT, 100 ng poly(dA:dT), 20 nM Cy5 probe, 30 C 30 min; 6% PAGE in 0.25X TBE", "conditions": "protein: recombinant;recombinant;recombinant; tags: 6His;6His removed by thrombin;; copies: 1;1;1"}, "[6]": {"target": "T1, AtNF-YA6;AtNF-YB2;AtNF-YC3", "assay": "competition EMSA; better than WT; 12 mM Tris-HCl pH 8.0, 50 mM NaCl, 50 mM KCl, 5 mM MgCl2, 0.5 mM EDTA, 12% glycerol, 0.2 mg/mL BSA, 2.5 mM DTT, 100 ng poly(dA:dT), 20 nM Cy5 probe, 30 C 30 min; 6% PAGE in 0.25X TBE", "conditions": "protein: recombinant;recombinant;recombinant; tags: 6His;6His removed by thrombin;; copies: 1;1;1"}, "[7]": {"target": "T1, AtNF-YA6;AtNF-YB2;AtNF-YC3", "assay": "competition EMSA; highest affinity at -3; 12 mM Tris-HCl pH 8.0, 50 mM NaCl, 50 mM KCl, 5 mM MgCl2, 0.5 mM EDTA, 12% glycerol, 0.2 mg/mL BSA, 2.5 mM DTT, 100 ng poly(dA:dT), 20 nM Cy5 probe, 30 C 30 min; 6% PAGE in 0.25X TBE", "conditions": "protein: recombinant;recombinant;recombinant; tags: 6His;6His removed by thrombin;; copies: 1;1;1"}, "[8]": {"target": "T1, AtNF-YA6;AtNF-YB2;AtNF-YC3", "assay": "competition EMSA; higher affinity; 12 mM Tris-HCl pH 8.0, 50 mM NaCl, 50 mM KCl, 5 mM MgCl2, 0.5 mM EDTA, 12% glycerol, 0.2 mg/mL BSA, 2.5 mM DTT, 100 ng poly(dA:dT), 20 nM Cy5 probe, 30 C 30 min; 6% PAGE in 0.25X TBE", "conditions": "protein: recombinant;recombinant;recombinant; tags: 6His;6His removed by thrombin;; copies: 1;1;1"}, "[9]": {"target": "T1, AtNF-YA6;AtNF-YB2;AtNF-YC3", "assay": "competition EMSA; purines preferred at +2; 12 mM Tris-HCl pH 8.0, 50 mM NaCl, 50 mM KCl, 5 mM MgCl2, 0.5 mM EDTA, 12% glycerol, 0.2 mg/mL BSA, 2.5 mM DTT, 100 ng poly(dA:dT), 20 nM Cy5 probe, 30 C 30 min; 6% PAGE in 0.25X TBE", "conditions": "protein: recombinant;recombinant;recombinant; tags: 6His;6His removed by thrombin;; copies: 1;1;1"}, "[10]": {"target": "T1, AtNF-YA6;AtNF-YB2;AtNF-YC3", "assay": "competition EMSA; 12 mM Tris-HCl pH 8.0, 50 mM NaCl, 50 mM KCl, 5 mM MgCl2, 0.5 mM EDTA, 12% glycerol, 0.2 mg/mL BSA, 2.5 mM DTT, 100 ng poly(dA:dT), 20 nM Cy5 probe, 30 C 30 min; 6% PAGE in 0.25X TBE", "conditions": "protein: recombinant;recombinant;recombinant; tags: 6His;6His removed by thrombin;; copies: 1;1;1"}}, "data": [{"binder": "CAB2 (-65) CCAAT 31 bp probe (dsDNA) DNA 1: CTTAAAATCCAATGAATGAACAGATAAAGAT DNA 2: ATCTTTATCTGTTCATTCATTGGATTTTAAG", "values": [{"measurement": "binding result", "setting": "[1]", "value": "binds"}, {"measurement": "binding result", "setting": "[2]", "value": "binds"}]}, {"binder": "CAB2 T7G (dsDNA) DNA 1: CTTAAAAGCCAATGAATGAACAGATAAAGAT DNA 2: ATCTTTATCTGTTCATTCATTGGCTTTTAAG", "values": [{"measurement": "binding result", "setting": "[3]", "value": "binds"}]}, {"binder": "CAB2 G13C (dsDNA) DNA 1: CTTAAAATCCAATCAATGAACAGATAAAGAT DNA 2: ATCTTTATCTGTTCATTGATTGGATTTTAAG", "values": [{"measurement": "binding result", "setting": "[3]", "value": "binds"}]}, {"binder": "CAB2 A6T (dsDNA) DNA 1: CTTAAATTCCAATGAATGAACAGATAAAGAT DNA 2: ATCTTTATCTGTTCATTCATTGGAATTTAAG", "values": [{"measurement": "binding result", "setting": "[4]", "value": "binds"}]}, {"binder": "CAB2 A15C (dsDNA) DNA 1: CTTAAAATCCAATGACTGAACAGATAAAGAT DNA 2: ATCTTTATCTGTTCAGTCATTGGATTTTAAG", "values": [{"measurement": "binding result", "setting": "[5]", "value": "binds"}]}, {"binder": "CAB2 A6C (dsDNA) DNA 1: CTTAAACTCCAATGAATGAACAGATAAAGAT DNA 2: ATCTTTATCTGTTCATTCATTGGAGTTTAAG", "values": [{"measurement": "binding result", "setting": "[6]", "value": "binds"}]}, {"binder": "CAB2 A5T (dsDNA) DNA 1: CTTAATATCCAATGAATGAACAGATAAAGAT DNA 2: ATCTTTATCTGTTCATTCATTGGATATTAAG", "values": [{"measurement": "binding result", "setting": "[7]", "value": "binds"}]}, {"binder": "CAB2 T16A (dsDNA) DNA 1: CTTAAAATCCAATGAAAGAACAGATAAAGAT DNA 2: ATCTTTATCTGTTCTTTCATTGGATTTTAAG", "values": [{"measurement": "binding result", "setting": "[8]", "value": "binds"}]}, {"binder": "CAB2 A15T (dsDNA) DNA 1: CTTAAAATCCAATGATTGAACAGATAAAGAT DNA 2: ATCTTTATCTGTTCAATCATTGGATTTTAAG", "values": [{"measurement": "binding result", "setting": "[5]", "value": "binds"}]}, {"binder": "CAB2 A15G (dsDNA) DNA 1: CTTAAAATCCAATGAGTGAACAGATAAAGAT DNA 2: ATCTTTATCTGTTCACTCATTGGATTTTAAG", "values": [{"measurement": "binding result", "setting": "[5]", "value": "binds"}]}, {"binder": "CAB2 A6G (dsDNA) DNA 1: CTTAAAGTCCAATGAATGAACAGATAAAGAT DNA 2: ATCTTTATCTGTTCATTCATTGGACTTTAAG", "values": [{"measurement": "binding result", "setting": "[6]", "value": "binds"}]}, {"binder": "CAB2 A14G (dsDNA) DNA 1: CTTAAAATCCAATGGATGAACAGATAAAGAT DNA 2: ATCTTTATCTGTTCATCCATTGGATTTTAAG", "values": [{"measurement": "binding result", "setting": "[9]", "value": "binds"}]}, {"binder": "CAB2 WT competitor 31 bp (dsDNA) DNA 1: CTTAAAATCCAATGAATGAACAGATAAAGAT DNA 2: ATCTTTATCTGTTCATTCATTGGATTTTAAG", "values": [{"measurement": "binding result", "setting": "[10]", "value": "binds"}]}, {"binder": "CAB2 T7A (dsDNA) DNA 1: CTTAAAAACCAATGAATGAACAGATAAAGAT DNA 2: ATCTTTATCTGTTCATTCATTGGTTTTTAAG", "values": [{"measurement": "binding result", "setting": "[3]", "value": "binds"}]}]}
